# T1: APG30126-L32-nAPG07433.1 (synthetic)
# T1 chain: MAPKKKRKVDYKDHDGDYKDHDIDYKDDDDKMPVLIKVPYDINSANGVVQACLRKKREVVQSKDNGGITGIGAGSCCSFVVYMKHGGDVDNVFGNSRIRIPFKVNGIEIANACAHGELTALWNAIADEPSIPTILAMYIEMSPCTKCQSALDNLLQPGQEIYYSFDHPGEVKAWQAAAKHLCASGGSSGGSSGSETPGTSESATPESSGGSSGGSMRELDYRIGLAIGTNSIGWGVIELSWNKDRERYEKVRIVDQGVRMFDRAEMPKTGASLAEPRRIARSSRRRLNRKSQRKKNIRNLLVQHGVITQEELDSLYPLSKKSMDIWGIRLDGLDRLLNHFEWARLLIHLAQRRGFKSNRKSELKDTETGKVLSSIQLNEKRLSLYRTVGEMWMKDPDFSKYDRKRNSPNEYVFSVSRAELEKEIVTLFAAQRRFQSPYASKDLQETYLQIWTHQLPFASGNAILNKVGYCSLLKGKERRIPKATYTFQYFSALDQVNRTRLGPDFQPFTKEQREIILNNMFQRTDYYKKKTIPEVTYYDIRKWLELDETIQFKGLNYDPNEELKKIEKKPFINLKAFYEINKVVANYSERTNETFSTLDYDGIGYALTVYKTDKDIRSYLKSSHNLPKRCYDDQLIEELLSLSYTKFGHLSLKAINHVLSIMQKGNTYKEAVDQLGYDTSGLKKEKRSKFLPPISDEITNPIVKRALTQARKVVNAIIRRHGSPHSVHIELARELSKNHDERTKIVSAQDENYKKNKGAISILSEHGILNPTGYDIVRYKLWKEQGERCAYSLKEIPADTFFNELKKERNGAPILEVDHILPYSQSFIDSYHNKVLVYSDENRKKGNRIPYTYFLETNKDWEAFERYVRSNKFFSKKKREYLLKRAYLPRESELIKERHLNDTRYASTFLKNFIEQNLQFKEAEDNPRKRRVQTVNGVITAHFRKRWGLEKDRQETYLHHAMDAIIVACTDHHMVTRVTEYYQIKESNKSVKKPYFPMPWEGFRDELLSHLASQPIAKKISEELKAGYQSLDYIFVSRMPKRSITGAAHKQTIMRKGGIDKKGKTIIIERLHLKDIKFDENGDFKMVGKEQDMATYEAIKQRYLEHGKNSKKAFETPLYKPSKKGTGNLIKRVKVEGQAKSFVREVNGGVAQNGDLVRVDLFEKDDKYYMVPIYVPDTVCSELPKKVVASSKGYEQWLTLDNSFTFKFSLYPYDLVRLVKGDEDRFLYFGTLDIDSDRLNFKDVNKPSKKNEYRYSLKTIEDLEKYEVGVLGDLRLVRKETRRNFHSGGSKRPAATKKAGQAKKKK
# B1: SGN000930 sgRNA ; SGN000930 target (ssRNA ; dsDNA)
# RNA: GAACAACUCAAAUGGAAAUGAAUAUGUCAUAGUUCCAUGAAAGCCAAAAGUGGCUUUGAUGUUUCUAUGAUAAGGGUUUCGGCCCGUGGCGUCGGGGAUCGCCUGCCCAUUCCGAUGGGCUUCUCCCCAUUUAUU
# DNA 1: GAACAACTCAAATGGAAATGAATAT
# DNA 2: ATATTCATTTCCATTTGAGTTGTTC
# Molecular target: T1, APG30126-L32-nAPG07433.1
# Test: cell_activity; HEK293FT; PAM SEQ 152
# Conditions: tags: SV40 NLS, 3xFLAG N-term; nucleoplasmin NLS C-term
# In short: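 Editing read out by next-generation sequencing (MiSeq 2×250) of PCR amplicons spanning the target site, analysed for INDELs or % cytosine conversion per position (position 1 nearest PAM).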
binder,measurement,value
B1,activity,1.38 % mutated reads

# — patent US20240301385, “DNA MODIFYING ENZYMES AND ACTIVE FRAGMENTS AND VARIANTS THEREOF AND METHODS OF USE” (LIFEEDIT THERAPEUTICS, INC., published 2024)
